Data reported in patent US20220251222A1 (Johns Hopkins, published 2022).

T1: IL-6R on IL-6-responsive HepG2 cells (UniProt P08887 20-468, limits assumed)
T1 sequence (looked up): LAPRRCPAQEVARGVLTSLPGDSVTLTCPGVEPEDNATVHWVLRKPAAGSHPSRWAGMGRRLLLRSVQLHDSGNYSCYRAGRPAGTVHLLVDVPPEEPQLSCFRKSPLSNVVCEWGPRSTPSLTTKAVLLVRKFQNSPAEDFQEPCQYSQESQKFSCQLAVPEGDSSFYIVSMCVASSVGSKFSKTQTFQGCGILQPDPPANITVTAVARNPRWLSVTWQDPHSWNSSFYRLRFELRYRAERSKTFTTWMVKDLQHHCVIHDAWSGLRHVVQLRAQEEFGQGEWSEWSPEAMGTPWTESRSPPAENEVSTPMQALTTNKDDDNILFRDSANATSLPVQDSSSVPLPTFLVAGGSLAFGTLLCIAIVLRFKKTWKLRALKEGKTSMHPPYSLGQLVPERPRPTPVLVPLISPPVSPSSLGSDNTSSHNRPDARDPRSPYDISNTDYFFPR

T2: IL-6Rα expressed on lentivirally transduced HEK 293T cells (UniProt P08887 20-468, limits assumed)
T2 construct: whole, on cells; also called IL-6Rα^+ cells; IL-6Rα^+/IL-8R^- HEK 293T cells
T2 sequence (looked up): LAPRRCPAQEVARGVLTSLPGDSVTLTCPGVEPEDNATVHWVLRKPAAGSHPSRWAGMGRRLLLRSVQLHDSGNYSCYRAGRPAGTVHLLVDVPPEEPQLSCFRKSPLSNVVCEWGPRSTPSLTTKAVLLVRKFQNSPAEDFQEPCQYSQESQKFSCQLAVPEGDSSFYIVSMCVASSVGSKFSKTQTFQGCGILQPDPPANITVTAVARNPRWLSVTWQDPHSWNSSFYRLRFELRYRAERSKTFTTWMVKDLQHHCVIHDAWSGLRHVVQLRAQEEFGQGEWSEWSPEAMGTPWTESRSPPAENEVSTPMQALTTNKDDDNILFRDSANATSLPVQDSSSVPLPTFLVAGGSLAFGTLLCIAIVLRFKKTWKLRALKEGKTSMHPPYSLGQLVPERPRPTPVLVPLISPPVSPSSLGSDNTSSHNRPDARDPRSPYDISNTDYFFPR

T3: human IL-6Rα extracellular domain (ECD), residues 89-303 of the mature protein, with C-terminal biotin … (human, UniProt P08887 108-322, biotinylated with BirA ligase on the biotin acceptor peptide)
T3 construct: range 89-303; The range 89-303 counts on the mature protein, not on the precursor; Any linkers between the ECD, BAP and His tag are not described; also called IL-6Rα ECD; recombinant IL-6Rα
T3 sequence: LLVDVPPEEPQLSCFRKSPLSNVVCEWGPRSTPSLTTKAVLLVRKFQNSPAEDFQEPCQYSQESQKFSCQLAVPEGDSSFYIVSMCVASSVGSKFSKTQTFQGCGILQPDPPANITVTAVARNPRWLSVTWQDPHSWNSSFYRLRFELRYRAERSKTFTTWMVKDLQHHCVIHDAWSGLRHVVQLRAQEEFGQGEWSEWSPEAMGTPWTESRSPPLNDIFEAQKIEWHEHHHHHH


Legend:
[1] = molecular target: T1, IL-6R on IL-6-responsive HepG2 cells; experiment: cell-based or functional assay
[2] = molecular target: T2, IL-6Rα expressed on lentivirally …; experiment: competition with 100 nM biotinylated IL-6 on IL-6Rα+/IL-8R- HEK 293T cells, flow cytometry
Protocol: IL-6Rα⁺/IL-8R⁻ and IL-6Rα⁻/IL-8R⁺ HEK 293T cells were cultured as previously described, and were trypsinized, resuspended in PBSA, and aliquoted into 96-well plates (2×10⁵ cells per well). IL-6Rα⁺/IL-8R⁻ 293T cells were incubated with titrations of various monoclonal or bispecific antibodies in the presence of saturating concentration of biotinylated IL-6 (100 nM) (Acro Biosystem, cat #: IL6-H8218-25UG) for 2 hr at 4° C. with rotation. Cells were then washed and incubated with 1:200 dilution of Alexa Fluor 647-conjugated streptavidin (Fisher Scientific, cat #: S21374) in PBSA for 15 min at 4° C. After a final wash, cells were resuspended in PBSA and analyzed on a CytoFLEX flow cytometer (Beckman Coulter). Curves were fitted to a first-order logistic model and IC₅₀ values were calculated using GraphPad Prism data analysis software. Mean fluorescence intensity (MFI) of unstimulated cells was subtracted. Similarly, IL-6Rα⁻/IL-8R⁺ 293T cells were incubated with titrations of various monoclonal or bispecific antibodies with saturating concentration of His-tagged IL-8 (400 nM) (Sino Biological, cat #: 10098-H08Y-100) for 2 hr at 4° C. with rotation. […] After a final wash, cells were resuspended in PBSA and analyzed on a CytoFLEX flow cytometer (Beckman Coulter). Curves were fitted to a first-order logistic model and IC₅₀ values were calculated using GraphPad Prism data analysis software. […]

[3] = molecular target: T3, human IL-6Rα extracellular domain …; experiment: competition: antibody against 300 nM biotinylated IL-6Rα ECD binding to IL-6-displaying yeast, flow cytometry
Protocol: Approximately 1×10⁵ human IL-6-displaying yeast per well were plated in a 96-well plate and washed with PBSA. Yeast cells were incubated with saturating concentrations of biotinylated human IL-6Rα (300 nM) and serial dilutions of unlabeled competitor antibody (either the anti-IL-6R antibody tocilizumab, the anti-IL-8R antibody 10H2, BS1, or BS2) in PBSA for 2 hours at room temperature. Cells were then washed and stained with a 1:200 dilution of Alexa647-conjugated streptavidin (Thermo) in PBSA for 15 min at 4° C. Cells were washed again and assessed for human IL-6Rα binding on a CytoFLEX flow cytometer (Beckman Coulter). Background-subtracted fluorescent signal as a fraction of receptor subunit binding in the absence of competitor antibody was plotted. Curves were fitted to a first order logistic model and half maximal inhibitory concentrations (IC₅₀s) were computed using GraphPad Prism. Assays were performed in triplicate and repeated two times with consistent results.
Tocilizumab is known to compete with IL-6 for IL-6Rα engagement. Thus, bispecific binding agents containing the tocilizumab variable regions (BS1 and BS2) were also expected to obstruct cytokine binding. […] However, tocilizumab (IC₅₀=59 nM), BS1 (IC₅₀=190 nM), and BS2 (IC₅₀=78 nM) all inhibited IL-6/IL-6Rα binding.

| Binder | inhibition of IL-6-induced STAT3 phosphorylation in HepG2 cells (IC50) [1] [nM] | IC50 [2] [nM] | IC50 [3] [nM] | inhibition of IL-6 signaling (pSTAT3) in HepG2 cells (IC50) [1] [nM] |
| --- | --- | --- | --- | --- |
| BS2 bispecific antibody (scFv-IgG fusion: 10H2 IgG with tocilizumab scFv on the light chains) (bispecific antibody, Human IgG1-based) heavy: not shown light: AGSQAVVTQESALTTSPGETVTLTCRSSTGAVTTSNYANWVQEKPDHLFTGLIGGTNNRPPGVPARFSGSLIGDKAALTITGAQIEDEAIYFCALWYSNHLVFGGGTKLTVLRTVAAPSVFIFPPSDEQLKSGTASVVCLLNNFYPREAKVQWKVDNALQSGNSQESVTEQDSKDSTYSLSSTLTLSKADYEKHKVYACEVTHQGLSSPVTKSFNRGECGGGGSGGGGSEVQLQESGPGLVRPSQTLSLTCTVSGYSITSDHAWSWVRQPPGRGLEWIGYISYSGITTYNPSLKSRVTMLRDTSKNQFSLRLSSVTAADTAVYYCARSLARTTAMDYWGQGSLVTVSSGGGGSGGGGSGGGGSDIQMTQSPSSLSASVGDRVTITCRASQDISSYLNWYQQKPGKAPKLLIYYTSRLHSGVPSRFSGSGSGTDFTFTISSLQPEDIATYYCQQGNTLPYTFGQGTKVEIK | 220 | 96 | 78 | – |
| tocilizumab, recombinant monoclonal hIgG1 (anti-IL-6Rα) (antibody, V domains shown, also called anti-IL-6Rα antibody) VH: EVQLQESGPGLVRPSQTLSLTCTVSGYSITSDHAWSWVRQPPGRGLEWIGYISYSGITTYNPSLKSRVTMLRDTSKNQFSLRLSSVTAADTAVYYCARSLARTTAMDYWGQGSLVTVSS VL: DIQMTQSPSSLSASVGDRVTITCRASQDISSYLNWYQQKPGKAPKLLIYYTSRLHSGVPSRFSGSGSGTDFTFTISSLQPEDIATYYCQQGNTLPYTFGQGTKVEIK | – | 30 | 59 | 76 |
